Source: PMC11418112
Residue numbers refer to the chain shown, from its start. Numbers in names are those of the source. Where two headings read alike, the source gives them in different places.

T1: SpoIIAA-P (phosphorylated SpoIIAA) (B. subtilis) (UniProt P10727)
T1 sequence (chain, phosphoserine at 58 (32P in the labelled tracer)): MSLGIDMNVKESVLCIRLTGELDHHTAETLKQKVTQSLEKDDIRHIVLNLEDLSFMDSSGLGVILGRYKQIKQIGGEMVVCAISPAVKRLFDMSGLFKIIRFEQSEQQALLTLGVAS

T2: SpoIIAA^R67T, phosphorylated (B. subtilis) (UniProt P10727)
T2 sequence (chain, phosphoserine at 58): T1 sequence (chain, phosphoserine at 58 (32P in the labelled tracer)) with R67T

T3: RsbV-P (phosphorylated RsbV) (B. subtilis) (UniProt P17903)
T3 sequence (chain, phosphoserine at 56 (32P)): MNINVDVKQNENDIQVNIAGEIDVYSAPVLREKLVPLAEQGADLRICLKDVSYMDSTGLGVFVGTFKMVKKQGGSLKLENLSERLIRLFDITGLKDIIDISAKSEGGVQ

B1: SpoIIE phosphatase domain (SpoIIE^590-827) (domain or fragment)
chain: SYRVSTGAAHAAKGGGLVSGDSYSMMELGARKYAAAISDGMGNGARAHFESNETIKLLEKILESGIDEKIAIKTINSILSLRTTDEIYSTLDLSIIDLQDASCKFLKVGSTPSFIKRGDQVMKVQASNLPIGIINEFDVEVVSEQLKAGDLLIMMSDGIFEGPKHVENHDLWMKRKMKGLKTNDPQEIADLLMEEVIRTRSGQIEDDMTVVVVRIDHNTPKWASIPVPAIFQNKQEIS
B2: SpoIIE^I723S (phosphatase domain, SpoIIE^590-827) (domain or fragment)
chain: B1 chain with I134S
B3: SpoIIE^P752R (phosphatase domain, SpoIIE^590-827) (domain or fragment)
chain: B1 chain with P163R
B4: SpoIIE^E675S (phosphatase domain, SpoIIE^590-827) (domain or fragment)
chain: B1 chain with E86S
B5: SpoIIE^3X (triple mutation of E675S, I723S, and P752R; phosphatase domain) (domain or fragment)
chain: B1 chain with E86S, I134S, P163R

Columns and labels:
[1] = biological target: T1, SpoIIAA-P (phosphorylated SpoIIAA) (B. subtilis)
[2] = biological target: T2, SpoIIAA^R67T, phosphorylated (B. subtilis)
[3] = biological target: T1, SpoIIAA-P (phosphorylated SpoIIAA) (B. subtilis); remark: listed apart in the source
[4] = biological target: T3, RsbV-P (phosphorylated RsbV) (B. subtilis)
[5] = biological target: T1, SpoIIAA-P (phosphorylated SpoIIAA) (B. subtilis); remark: listed apart in the source
[6] = biological target: T1, SpoIIAA-P (phosphorylated SpoIIAA) (B. subtilis); remark: listed apart in the source
[7] = biological target: T2, SpoIIAA^R67T, phosphorylated (B. subtilis); remark: listed apart in the source
[8] = biological target: T1, SpoIIAA-P (phosphorylated SpoIIAA) (B. subtilis); remark: listed apart in the source
[9] = biological target: T3, RsbV-P (phosphorylated RsbV) (B. subtilis); remark: listed apart in the source
[10] = biological target: T3, RsbV-P (phosphorylated RsbV) (B. subtilis); remark: listed apart in the source

| Binder | kobs of SpoIIAA-P dephosphorylation over time (0.1 μM SpoIIE, 0.5 μM SpoIIAA-P, 10 mM MnCl2) [1] [min^–1] | kobs of SpoIIAA^R67T dephosphorylation over time (0.1 μM SpoIIE, 10 mM MnCl2) [2] [min^–1] | KM for SpoIIAA-P (multiple turnover, 10 mM MgCl2, Michaelis-Menten fit) [3] [µM] | kcat of SpoIIAA-P dephosphorylation (multiple turnover, 10 mM MgCl2, Michaelis-Menten fit) [3] [min^–1] | kcat/KM of SpoIIAA-P dephosphorylation (multiple turnover, 0.1 μM SpoIIE, 10 mM MgCl2) [3] [μM^–1 min^–1] | KM for RsbV-P (single turnover, varying SpoIIE, 10 mM MnCl2, Michaelis-Menten fit) [4] [µM] | kcat of RsbV-P dephosphorylation (single turnover, 10 mM MnCl2, Michaelis-Menten fit) [4] [min^–1] | kcat/KM of RsbV-P dephosphorylation (single turnover, 0.15 μM RsbV-P, 10 mM MnCl2) [4] [μM^–1 min^–1] | KM for SpoIIAA-P as printed in the legend of Figure 4B (multiple turnover, 10 mM MgCl2) [5] [µM] | fold decrease in rate of dephosphorylation of SpoIIAA-P, against SpoIIE (Fig. S6) [6] [fold] | fold decrease in rate of dephosphorylation of SpoIIAA^R67T, against SpoIIE (Fig. S6) [7] [fold] | fold decrease in activity toward SpoIIAA-P with manganese as the metal cofactor, against SpoIIE (Fig. S5) [8] [fold] | kcat of SpoIIAA-P dephosphorylation (multiple turnover, 10 mM MgCl2, Michaelis-Menten fit) [5] [min^–1] | kcat/KM of SpoIIAA-P dephosphorylation (multiple turnover, 0.1 μM SpoIIE, 10 mM MgCl2) [5] [μM^–1 min^–1] | KM for RsbV-P (single turnover, varying SpoIIE, 10 mM MnCl2, Michaelis-Menten fit) [9] [µM] | kcat of RsbV-P dephosphorylation (single turnover, 10 mM MnCl2, Michaelis-Menten fit) [9] [min^–1] | kcat/KM of RsbV-P dephosphorylation, fold change against SpoIIE (Fig. 4C) [10] [fold] |
| --- | --- | --- | --- | --- | --- | --- | --- | --- | --- | --- | --- | --- | --- | --- | --- | --- | --- |
| B1 | 0.98 | 0.056 | 28.7 | 0.39 | 0.011 | 12.8 | 0.0086 | 0.00045 | 0.39 |  |  |  |  |  |  |  |  |
| B2 |  |  | 29.1 | 0.036 | 0.001 | 47.6 | 0.018 | 0.00028 |  | 2 | 2 |  |  |  |  |  |  |
| B3 |  |  | 38.6 | 0.15 | 0.0039 | 79.3 | 0.15 | 0.0035 |  |  |  |  |  |  |  |  |  |
| B4 | 0.23 | 0.086 | 18.3 | 0.02 | 0.001 | 95.7 | 0.063 | 0.00058 |  |  |  | 2 |  |  |  |  |  |
| B5 |  |  |  |  |  |  |  |  |  |  |  |  | 0.011 | 0.00011 | 29.1 | 0.043 | 5 |
